Measured values published in US20110293618A1 (MEDICAL AND BIOLOGICAL LABORATORIES, published 2011).
Numbering of substitutions follows the chain as printed. Values belong to the binder of their own block, whether it stands above or below them.

Legend:
[1] = target: T1, purified partial protein containing the FA58C domain of human CLCP1 (amino acid positions 284 to 526), … (human, UniProt Q96PD2 284-526); test: ELISA, hybridoma screening on immunogen-coated plate
T1 construct: also called partial protein containing FA58C domain; region containing FA58C; not shown: myc-His tag
T1 sequence: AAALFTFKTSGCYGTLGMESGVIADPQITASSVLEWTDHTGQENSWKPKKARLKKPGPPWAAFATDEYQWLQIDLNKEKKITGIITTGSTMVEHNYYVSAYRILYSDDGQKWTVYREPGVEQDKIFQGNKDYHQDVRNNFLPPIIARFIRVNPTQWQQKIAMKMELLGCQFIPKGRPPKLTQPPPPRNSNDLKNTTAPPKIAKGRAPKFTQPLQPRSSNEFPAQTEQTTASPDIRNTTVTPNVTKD
Description: After expansion culture in HT medium [RPMI1640, HT-supplement (Invitrogen; 21060-017), Penicillin, and Streptomycin] supplemented with 15% FBS, the cells were cloned into single clones by the limiting dilution method. Eleven hybridoma clones producing anti-human CLCP1 antibody were obtained by the method described above.

[2] = target: T2, human CLCP1 (CUB, LCCL-homology, coagulation factor V/VIII homology domains protein), full length, on cells (human, UniProt Q96PD2 67-775); test: flow cytometry on H460-LNM35 cells, antibody 5 ug/ml, PE anti-mouse IgG
T2 construct: also called ESDN; DCBLD2
T2 sequence: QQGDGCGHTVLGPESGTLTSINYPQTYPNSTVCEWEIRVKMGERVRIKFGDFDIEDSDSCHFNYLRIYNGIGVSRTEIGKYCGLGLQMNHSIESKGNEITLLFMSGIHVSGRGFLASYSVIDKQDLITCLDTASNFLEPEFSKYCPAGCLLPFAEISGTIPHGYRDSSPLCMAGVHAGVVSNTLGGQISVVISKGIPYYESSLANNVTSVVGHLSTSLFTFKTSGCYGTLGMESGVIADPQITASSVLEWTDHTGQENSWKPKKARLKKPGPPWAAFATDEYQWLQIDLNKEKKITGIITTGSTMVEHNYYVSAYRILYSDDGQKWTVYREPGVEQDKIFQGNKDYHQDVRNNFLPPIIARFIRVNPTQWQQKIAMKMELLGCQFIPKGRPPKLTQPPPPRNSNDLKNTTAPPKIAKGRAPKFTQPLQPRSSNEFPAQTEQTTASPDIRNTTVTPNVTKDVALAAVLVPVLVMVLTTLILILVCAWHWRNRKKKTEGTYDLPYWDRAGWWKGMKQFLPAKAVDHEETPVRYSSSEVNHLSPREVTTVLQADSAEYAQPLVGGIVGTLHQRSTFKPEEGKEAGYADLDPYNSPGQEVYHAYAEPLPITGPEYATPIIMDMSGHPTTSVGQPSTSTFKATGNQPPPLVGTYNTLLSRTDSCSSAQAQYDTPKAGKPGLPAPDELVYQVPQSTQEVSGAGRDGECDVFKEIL
Experimental: The antibodies prepared as described above were assessed for the reactivity to endogenous human CLCP1 by testing their reactivity to cells of high CLCP1-expressing line H460-LNM35 according to the following method. Anti-human CLCP1 antibody was purified from culture supernatant of each hybridoma clone by a conventional affinity purification method using Protein A-Sepharose. The purified antibodies were each diluted to 5 μg/ml, and the reaction intensity to H460-LNM35 was assessed by flow cytometry. In this assay, the anti-CLCP1 monoclonal antibody bound on the cell surface was detected by using a phycoerythrin-labeled anti-mouse IgG antibody. All samples were processed under the same conditions.

[3] = target: T3, endogenous human CLCP1 in H460-LNM35 cell lysate (human, UniProt Q96PD2 67-775); test: Western blot of H460-LNM35 lysate; almost no signal in CLCP1-knockdown cells
T3 construct: Same protein as m1 but solubilised: SDS lysate for Western blot (denatured, reduced) or NP-40 lysate for immunoprecipitation; also called endogenous CLCP1
T3 sequence: T2 sequence
Experimental: As described in the reference, Nagai H, et al., Oncogene 26: 4025-4031 (2007), a subline that constitutively expresses a CLCP1 siRNA as a short hairpin RNA (shRNA) biosynthesized in cells has been established from the high expressing CLCP1 cell line H460-LNM35. […] Western blotting was carried out using siCLCP1-3 #9 cells (CLCP1 Knockdown in FIG. 8) and H460-LNM35 cells.
2×10⁶ cells of the high expressing CLCP1 cell line H460-LNM35 and siCLCP1-3 #9 line were each suspended in lysis buffer [50 mM Tris (pH 6.8), 5% glycerol, 2% SDS], and the protein concentration was determined using the DC Protein Assay Kit (Bio-Rad). Then, 2-mercaptoethanol was added at 5.3% to the lysates. After heating, 20 μg each of the lysates were subjected to SDS-PAGE, followed by Western blotting with each of the antibodies and an HRP-labeled anti-mouse or anti-rabbit antibody. […] Meanwhile, there was almost no detectable signal in siCLCP1-3 #9 cells.

[4] = target: T2, human CLCP1 (CUB, LCCL-homology, …); test: flow cytometry on NCI-H460-LNM35 cells
[5] = target: T2, human CLCP1 (CUB, LCCL-homology, …); test: cell-based or functional assay
[6] = target: T4, E. coli-produced recombinant protein corresponding to aa 195-aa 457 in SEQ ID NO: 2 (human, UniProt Q96PD2 195-457); test: ELISA on purified E. coli fragment
T4 construct: pET28a expression system; vector-encoded tag residues not described
T4 sequence: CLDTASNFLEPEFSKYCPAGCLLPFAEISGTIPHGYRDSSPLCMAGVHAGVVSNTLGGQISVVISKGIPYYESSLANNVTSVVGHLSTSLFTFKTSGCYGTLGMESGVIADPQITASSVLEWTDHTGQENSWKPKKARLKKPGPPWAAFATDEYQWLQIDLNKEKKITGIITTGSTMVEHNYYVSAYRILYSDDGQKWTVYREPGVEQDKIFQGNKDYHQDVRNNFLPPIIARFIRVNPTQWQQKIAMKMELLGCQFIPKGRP
Experimental: (§1) Each antibody was assayed by ELISA using the purified proteins prepared described above.

[7] = target: T5, E. coli-produced recombinant protein corresponding to aa 195-aa 453 in SEQ ID NO: 2 (human, UniProt Q96PD2 195-453); test: ELISA on purified E. coli fragment
T5 construct: pET28a, BL21, urea-solubilised, TALON-purified; vector-encoded tag residues not described
T5 sequence: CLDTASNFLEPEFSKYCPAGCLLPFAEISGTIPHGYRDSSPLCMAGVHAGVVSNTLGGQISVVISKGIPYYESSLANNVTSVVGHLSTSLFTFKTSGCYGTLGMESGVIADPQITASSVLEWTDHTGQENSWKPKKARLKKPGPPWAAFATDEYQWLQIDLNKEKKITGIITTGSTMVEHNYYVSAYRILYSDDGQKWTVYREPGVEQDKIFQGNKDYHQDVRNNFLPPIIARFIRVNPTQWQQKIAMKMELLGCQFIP
Experimental: as §1

[8] = target: T6, E. coli-produced recombinant protein corresponding to aa 195-aa 465 in SEQ ID NO: 2 (human, UniProt Q96PD2 195-465); test: ELISA on purified E. coli fragment
T6 construct: pET28a expression system; vector-encoded tag residues not described
T6 sequence: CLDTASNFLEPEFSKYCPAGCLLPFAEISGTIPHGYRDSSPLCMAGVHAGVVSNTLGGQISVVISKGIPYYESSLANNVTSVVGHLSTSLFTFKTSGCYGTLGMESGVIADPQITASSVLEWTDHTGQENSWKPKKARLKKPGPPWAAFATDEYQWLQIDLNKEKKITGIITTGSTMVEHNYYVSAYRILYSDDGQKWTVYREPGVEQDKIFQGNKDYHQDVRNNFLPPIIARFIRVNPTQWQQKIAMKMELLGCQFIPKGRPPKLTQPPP
Experimental: as §1

[9] = target: T7, E. coli-produced recombinant protein corresponding to aa 195-aa 461 in SEQ ID NO: 2 (human, UniProt Q96PD2 195-461); test: ELISA on purified E. coli fragment
T7 construct: pET28a expression system; vector-encoded tag residues not described
T7 sequence: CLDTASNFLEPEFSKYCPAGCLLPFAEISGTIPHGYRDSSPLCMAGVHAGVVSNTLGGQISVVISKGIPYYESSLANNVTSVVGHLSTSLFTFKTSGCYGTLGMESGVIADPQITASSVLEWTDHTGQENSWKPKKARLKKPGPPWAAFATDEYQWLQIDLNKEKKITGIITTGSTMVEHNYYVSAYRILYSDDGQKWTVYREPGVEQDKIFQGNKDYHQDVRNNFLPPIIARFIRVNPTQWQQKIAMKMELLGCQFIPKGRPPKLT
Experimental: as §1

[10] = target: T8, purified protein of the whole extracellular domain of human CLCP1 (amino acid positions 1 to 526), myc-His … (human, UniProt Q96PD2 67-526); test: ELISA on purified extracellular domain protein, culture supernatants
T8 construct: also called whole extracellular domain protein; complete extracellular domain protein; not shown: myc-His tag
T8 sequence: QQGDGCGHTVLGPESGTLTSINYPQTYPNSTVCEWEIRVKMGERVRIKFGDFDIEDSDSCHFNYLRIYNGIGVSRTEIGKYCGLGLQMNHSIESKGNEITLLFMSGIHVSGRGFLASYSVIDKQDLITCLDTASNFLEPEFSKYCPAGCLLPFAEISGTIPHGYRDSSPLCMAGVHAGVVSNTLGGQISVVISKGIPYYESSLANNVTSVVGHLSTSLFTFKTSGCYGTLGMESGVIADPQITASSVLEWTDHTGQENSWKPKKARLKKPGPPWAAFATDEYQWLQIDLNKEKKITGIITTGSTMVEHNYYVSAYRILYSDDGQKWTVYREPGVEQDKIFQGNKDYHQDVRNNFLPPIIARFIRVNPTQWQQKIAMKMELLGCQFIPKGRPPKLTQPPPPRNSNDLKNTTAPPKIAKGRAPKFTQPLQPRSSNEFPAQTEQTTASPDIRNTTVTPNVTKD
Experimental: Using the culture supernatants whose IgG concentrations had been determined, the activities of the chimeric antibody, humanized antibody, and serine-substituted humanized antibody were assessed and compared by ELISA for the purified protein of the extracellular domain of CLCP1 described in Example 21. […] Thus, humanized FA19-1 was successfully designed (FIGS. 42 and 43).

binding result [1]: binds
binding result [2]: binds
binding result [3]: binds
B1: FA17-9 (antibody, V domains shown)
VH: EVQLQQSGPELVKPGASVKMSCKASGYTFTTYVMHWVKQKPGQGLEWIGYINPYNDGTKYNEKFKGKATLTSDKSSSTAYMELSSLTSEDSAVYYCARGANYYGSSYNWSFDVWGAGTTVTVSS
VL: DIQMTQSPSSLSASLGGKVTITCKASQDINKYIAWYQHKPGEGPRLLIHYTSTLQPGIPSRFSGSGSGRDYSFSISNLEPEDIATYYCLQYDYLWTFGGGTKL
notes: Mouse monoclonal; also called antibody No. FA17-9; Antibody 1

binding result [4]: binds
B2: chimeric FA17-9 antibody (antibody, V domains shown)
VH: B1 VH
VL: B1 VL
notes: Variable regions of FA17-9 joined to constant regions derived from human IgG1 (LONZA vector)

B3: chimeric FA19-1 antibody (antibody, V domains shown)
VH: B1 VH with V33I, K67E, S106N
VL: B1 VL with K24R, E42K, Y50H, S52C
ADCC, % cytotoxicity (lactate dehydrogenase release), A549 targets, antibody 10 ug/ml, E/T ratio 50, five donors [5]: 47.1%
ADCC, % cytotoxicity (lactate dehydrogenase release), NCI-H460-LNM35 targets, antibody 10 ug/ml, E/T ratio 50 [5]: 32.4%

binding result [6]: no binding
binding result [7]: no binding
binding result [8]: no binding
binding result [9]: no binding
B4: FA19-1 (antibody, V domains shown)
VH: B1 VH with V33I, K67E, S106N
VL: B1 VL with K24R, E42K, Y50H, S52C
notes: Mouse monoclonal; also called antibody No. FA19-1; Antibody 2

binding result [10]: binds
B5: serine-substituted humanized FA19-1 antibody (FA19RHA and serine-substituted light chain) (antibody, V domains shown)
VH: QVQLVQSGAEVKKPGASVKVSCKASGYTFTTYIMHWVRQAPGQRLEWIGYINPYNDGTKYNEKFKGRVTVTRDTSANTAYMELSSLKSEDTAVYYCARGANYYGSNYNWSFDVWGQGTLVTVSS
VL: DIQMTQSPSSLSASVGDRVTITCRASQDINKYIAWYQQKPGKAPKLLIYHTSTLQPGVPSRFSGSGSGTDFTLTISSLQPEDFATYYCLQYDYLWTFGGGTKVEIK
notes: it is the cysteine of the CDR2 motif HTCTLQP; also called serine-substituted humanized antibody; serine-substituted antibody

binding result [7]: no binding
binding result [9]: no binding
B6: 6AA-17-2 (antibody, V domains shown)
VH: EVQLQQSGAELVRPGALVKLSCKASGFNIKDYYMHWVKQRPEQGLEWIGWIDPENDNTIYDPKFQGKASITADTSSNTAYLHLSSLTSEDTAVYYCARAYGYDDYYAMEYWGQGTSVTVSS
VL: NIMMTQSPSSLAVSAGEKVTMSCKSSQSVLYSSNQKNYLAWYQQKPGQSPKLLIYWTSTRESGVPDRFTGSGSGTDFTLTISSVQAEDLAIYYCHQYLYSYTFGGGTKL
notes: Mouse monoclonal raised against the partial protein containing the FA58C domain; also called Antibody 3
